Series [1] addresses T1, 9-amino acid synthetic alpha-tubulin peptide MPSD(AcK)TIGG, acetylated on lysine-40.
T1 chain: MPSDXTIGG

For series [2], the target named is monoacetylated histone H3 peptide …(AcK)APRKQL, acetylated on lysine-14.
Series [3] concerns the target PCAF-acetylated calf thymus core histones.

B1: recombinant human SIRT2 (6xHis-tagged, with factor Xa cleavage site, purified from E. coli) (protein)
chain: MAEPDPSHPLETQAGKVQEAQDSDSDSEGGAAGGEADMDFLRNLFSQTLSLGSQKERLLDELTLEGVARYMQSERCRRVICLVGAGISTSAGIPDFRSPSTGLYDNLEKYHLPYPEAIFEISYFKKHPEPFFALAKELYPGQFKPTICHYFMRLLKDKGLLLRCYTQNIDTLERIAGLEQEDLVEAHGTFYTSHCVSASCRHEYPLSWMKEKIFSEVTPKCEDCQSLVKPDIVFFGESLPARFFSCMQSDFLKVDLLLVMGTSLQVQPFASLISKAPLSTPRLLINKEKAGQSDPFLGMIMGLGGGMDFDSKKAYRDVAWLGECDQGCLALAELLGWKKELEDLVRREHASIDAQSGAGVPNPSTSASPKKSPPPAKDEARTTEREKPQ
Turning to B1, in series [1], the “V/K, deacetylation of tubulin peptide, HPLC” value was 894 ± 100 M⁻¹ s⁻¹; the “fold preference for tubulin peptide relative to Hst2p (kcat and V/K)” value is reported as “This difference was 60-fold”; the “kcat (printed 'kea'), deacetylation of tubulin peptide, HPLC” value worked out at 0.144 ± 0.005 s⁻¹. In addition, in series [2], the “kcat (printed 'km values'), deacetylation of acetylated H3 peptide” value was “The km values (˜0.2 s^-1) were similar between the two enzymes”.

B2: recombinant yeast Hst2p (protein)
chain: MSVSTASTEMSVRKIAAHMKSNPNAKVIFMVGAGISTSCGIPDFRSPGTGLYHNLARLKLPYPEAVFDVDFFQSDPLPFYTLAKELYPGNFRPSKFHYLLKLFQDKDVLKRVYTQNIDTLERQAGVKDDLIIEAHGSFAHCHCIGCGKVYPPQVFKSKLAEHPIKDFVKCDVCGELVKPAIVFFGEDLPDSFSETWLNDSEWLREKITTSGKHPQQPLVIVVGTSLAVYPFASLPEEIPRKVKRVLCNLETVGDFKANKRPTDLIVHQYSDEFAEQLVEELGWQEDFEKILTAQGGMGDNSKEQLLEIVHDLENLSLDQSEHESADKKDKKLQRLNGHDSDEDGASNSSSSQKAAKE
On to B2, for which, in series [3], the “apparent V/K for deacetylation of core histones, fold over SIRT2” value is on record as “Hst2p exhibited a 7-fold higher V/K value than SIRT2”. In series [1], the “V/K, deacetylation of tubulin peptide, HPLC” value turned out to be 14.9 M⁻¹ s⁻¹ and the “kcat (printed 'kea'), deacetylation of tubulin peptide, HPLC” value stood at 0.00254 ± 0.0003 s⁻¹. Moreover, in series [2], the “fold preference for H3 peptide relative to SIRT2 (V/K and Km)” value was “˜200-fold stronger preference for H3 peptide relative to SIRT2”; the “kcat (printed 'km values'), deacetylation of acetylated H3 peptide” value is on record as “The km values (˜0.2 s^-1) were similar between the two enzymes”.

(Values after patent US20040028607.)
